Reference: the DeepSol protein solubility set

Assay: soluble on expression in E. coli; label from the status in PepcDB or PDB records

Sequence | soluble on expression in E. coli
AIADKKAMWDRFYTENGSKGQFKNFEWFFGFPSVKDLVLPALQAMSCSHSGPLHILDMGCGTSALGPCIYSTSPCAVRVTCADISPVAVKLMEEHTKSTSTQPCNPSSALVFLELDCTQMTGHFKSRSLDLILDKGTTDALVRSKEGQVKAGQILRQSLQVLRPSGSFLQFSDEDPDARLIWLEREVQGAEVTADVGVQEIGELRGVSYFCYQISPRSRPHS | soluble
MANLKRYNDGLFKLDLWIRRLLTIGESNELYTALCDGVCDIVGAGTAVFTTIDMQAGTLTYMAASGGWNAMVKGLAVPMKSGNLCASVAACGTPLRIDQISSRTDSCELLQVMDMDAAVLVPVLEEGRVTACLSAFRVGNPFDQIDEQLLQQYAHTASMVLRTVRLMVDLR | not soluble
MGSDKIHHHHHHMNKQVSTRGTKEKALRLNLDDKKYGTIVEIGAGQEVARNFFVAGAAAGTIAKTMSAYDMTFSDAIYGVQQDGRYVSKARVQAMMEQELDLVIERVGDVRSKSSRYFTYAATVAAKSFNRNNECHAWCGVRVQMYPGAEPSNIVVHVRMFDDNAEAQQQALGVLGVNLIYAAYYYFEDPKKIIDSLTDDLKANRIEIDCIEFQGPYFEDIDSRAKNIHLIRSWKTRAIMFKPDGSVAVPAEMLYKKNVLTIRGSFKPVTKLNVDMIEQGEKAFAELEGVSKDNTIVIAEISLNDSHGKDANMSSTDIIERVKLLNLLGYNVMVSDYTRYFSLRAYFRQYTKLQIGIVVGMINIKQIFDETFYRGLEGGILEGFGKLFPDHTRVFVYPELSETGELKDLTTVNVPNNLRYLYRHLLDNGFITSIESSDINLFSYFSREILKQIAKGSDEWQQALPQPVIDEIISKKLFGYRG | not soluble
MPSARLQQQFIRLWQCCEGKSQDTTLNELAALLSCSRRHMRTLLNTMQDRGWLTWEAEVGRGKRSRLTFLYTGLALQQQRAEDLLEQDRIDQLVQLVGDKATVRQMLVSHLGRSFRQGRHILRVLYYRPLRNLLPGSALRRSETHIARQIFSSLTRINEENGELEADIAHHWQQISPLHWRFFLRPGVHFHHGRELEMDDVIASLKRINTLPLYSHIADIVSPTPWTLDIHLTQPDRWLPLLLGQVPAMILPREWETLSNFASHPIGTGPYAVIRNSTNQLKIQAFDDFFGYRALIDEVNVWVLPEIADEPAGGLMLKGPQGEEKEIESRLEEGCYYLLFDSRTHRGANQQVRDWVSYVLSPTNLVYFAEEQYQQLWFPAYGLLPRWHHARTIKSEKPAGLESLTLTFYQDHSEHRVIAGIMQQILASHQVTLKIKEIDYDQWHTGEIESDIWLNSANFTLPLDFSVFAHLCEVPLLQHCIPIDWQADAARWRNGEMNLANWCQQLVASKAMVPLLHHWLIIQGQRSMRGLRMNTLGWFDFKSAWFAPPDP | not soluble
MAGDPMNFVTTLTYLLPHRMLSSLARHVAYCQHPLIKQWLIDTVIAKFDVNLSEAAEPDAHAYPSFNAFFTRSLKTGIRLPDPNPDTLLMPADGRISQLGPIREGRIFQAKGQSFTATELLGDTAAAAAFTNGLFATVYLSPRDYHRVHMPCTGQLLKTVHVPGRLFSVGPDAVRQIPRLFARNERLACHFDTAFGPMVLVMVGALLVSGVETVWGGVEIPAYGDRITHKDYQGRNIAIERFAEMARFNYGSTVIVLLPPNVFTLAPHLTAESPVTLGQALAHRLSLNHSTQAPTQEKLEHHHHHH | not soluble
KITGLLDGDRVIVFDKNGISKLSARHYGNVEGNFLSLSLVEALYLINLGWLEVKYKDNKPLSFEELYEYARNVEERLCLKYLVYKDLRTRGYIVKTGLKYGADFRLYERGANIDKEHSVYLVKVFPEDSSFLLSELTGFVRVAHSVRKKLLIAIVDADGDIVYYNMTYVKP | soluble
MTPLGPASSLPQSFLLKCLEQVRKIQGDGAALQEKLCATYKLCHPEELVLLGHSLGIPWAPLSSCPSQALQLAGCLSQLHSGLFLYQGLLQALEGISPELGPTLDTLQLDVADFATTIWQQMEELGMAPALQPTQGAMPAFASAFQRRAGGVLVASHLQSFLEVSYRVLRHLAQP | soluble
MKNVEEQAEREIALSDEMVLQFLQQNPDFFIRNARPVEQMRVPHPVRGTVSLVEWQLARQRNHITQLEEEITLLMEQAGANEVLFNRLLGLQTELASAESLTDMLDRLQRWARQLGLAGAAVRLFSDKWRIGAPSDFTHLGLNRSSFEPLRIQRFGQHNHYLGSLNGPELLLLLPQARQVGSVALSLMGNHHDLGVLIFSSRDSHHYQNGMGTVLLQQMAMMLPAMLARWVERVLEHHHHHH | not soluble
VGKMTPDFLGSLSTTLSWKNLSLHIATDMRFGGLVASYSNLYGTQAGWIKSSLKWRDPEHGGLSWTSQYGDSKGISYGDGVIPDGVFKNGTFATLVDGTKMDVSGMSYKQLVAEGKLEPTHAGTYHVNRAAWGQNTIFDTWVHELNYIALREITLSYRFPKSVASKFGAQGLGLSFSARNLGYLYNSLPNHLNPESVRGNTASEFRIRGYEPYTANYMMTINVDF | not soluble
DRCRYTLCCDGALKAVSACLHESESCLVPGDCCRGKSRLTLCSYGEGGNGFQCPTGYRQC | soluble
MPTSIQFQRSSTAAEAANATVRNYPHHHQKQVQKVSLTRGMADVPEHVELSHTHVVGPSQCFSVVVQDVEAPVSTVWSILSRFEHPQAYKHFVKSCHVVIGDGREVGSVREVRVVSGLPAAFSLERLEIMDDDRHVISFSVVGGDHRLMNYKSVTTVHESEEDSDGKKRTRVVESYVVDVPAGNDKEETCSFADTIVRCNLQSLAKLAENTSKFS | not soluble
GSTAIGINDTYSEVKSDLAQQKAEMELSDLIRKGYHKALVKLKLKKNTVDDISESLRQGGGKLNFDELRQDLKGKGHTDAEIEAIFTKYDQDGDQELTEHEHQQMRDDLEKEREDLDLDHSSL | soluble
MSYSPSLKEIIAILQKYTSKNYQSNCKTRPDGKLELSLNGVFEEIVKTPGKTRYVTHKQLDQKLKDFKQDLMVELHDTFATKTDLKESEARINQKLEALIQIVMVQGEQIKVHGEQINKLTQAVEKQGEKIEAQGQQIQKVNETLNFVVESLGSIHKRLDSMEGRLDSMENRLDKLESK | soluble
MSNNETMMFNVEKEKVNEARELLVSVYKALKEKGYNPINQIVGYILSGDPTYITNHLDARSSIRKVERDELLEEILRCYLEECIGKEGSV | soluble
SEDNQRSRFRKICVFCGSHSGHREVFSDAAIELGNELVKRKIDLVYGGGSVGLMGLISRRVYEGGLHVLGIIPKALMPIEISGETVGDVRVVADMHERKAAMAQEAEAFIALPGGYGTMEELLEMITWSQLGIHKKTVGLLNVDGYYNNLLALFDTGVEEGFIKPGARNIVVSAPTAKELMEKMEEYTPSHMHVASHESWKVEELGDYPGQENKPQ | soluble
MNSFYSQEELKKIGFLSVGKNVLISKKASIYNPGVISVGNNVRIDDFCILSGKVTIGSYSHIAAYTALYGGEVGIEMYDFANISSRTIVYAAIDDFSGNALMGPTIPNQYKNVKTGKVILKKHVIIGAHSIIFPNVVIGEGVAVGAMSMVKESLDDWYIYVGVPVRKIKARKRKIVELENEFLKSMNSLEHHHHHH | not soluble
MRSRPTEGNLLVSIGIPFLNPGPYLDLAVRSVFAQTYLNWELILVDDGSTDGSYERAVAIQDPRVRVLRDGQNKGLPARLNEIVRLAKGELVARMDADDAMHPLRLEKQVGFLQANPELDGVTTGAYLIDAEDRPIALLPGRQPSAQEVLARGGFLHPSLLARKSWFEAHPYSLDYPRAEDRELFVRTFKTSRLHVLSEPLYFYRWFGVPRGKTLRIGYRSERKVMWKYGPNLVGWGPSLRLIALSFGKELLTWFLEWTHLEKGFQTRRAFQPLLEMDQREALRTLKVIRETCVPGWD | soluble
MSVIDANALDTAAFVARYRALFEHSPWVVERAARRRPFDDVFGGLMQVVYDASPDDQLALIRAHPELAGKAAIDRTLTAASAAEQASAGLDRLDEDEFHRFHALNHAYRQRFGFPFVICVRLQDKAGILAELQRRLDAPRNDEIATALAEIGKIVHLRLEALPLEHHHHHH | soluble
